Test results as given in PMC9140718.
Values belong to the substance of their own block, whether it stands above or below them.

Tests used:
[1] = biological target: plasma FXI of Maine Coon cats homozygous for the M516 variant (feline (endogenous in Maine Coon cat plasma)); assay: non-reducing SDS-PAGE with Western blot; citrated plasma (1 µL) on non-reducing 7.5% polyacrylamide gels; detected with biotinylated IgG 14E11 and streptavidin-horseradish peroxidase
[2] = biological target: plasma FXI of Maine Coon cats homozygous for wild-type FXI (feline (endogenous in Maine Coon cat plasma)); assay: as above
[3] = biological target: plasma-derived human FXI (pFXI) (human); assay: SDS-PAGE under non-reducing and reducing conditions; purified FXI on a 7.5% polyacrylamide gel, Coomassie blue stained; homodimer unreduced, monomer reduced
[4] = biological target: recombinant variant feline factor XI (fFXI-M516) (feline (Felis catus)); assay: as above
[5] = biological target: recombinant wild-type feline factor XI (fFXI-V516) (feline (Felis catus)); assay: as above
[6] = biological target: recombinant wild-type human factor XI (hFXI-V516) (human); assay: as above

Substance: plasma FXI of Maine Coon cats homozygous for the M516 variant (natural protein)
- stoichiometry N [1]: 2

Substance: plasma-derived human FXI (pFXI) (natural protein)
- stoichiometry N [3]: 2

Substance: recombinant variant feline factor XI (fFXI-M516) (natural protein)
- stoichiometry N [4]: 2

Substance: recombinant wild-type human factor XI (hFXI-V516) (natural protein)
- stoichiometry N [6]: 2

Continued, values first:

- stoichiometry N [2]: 2
Substance: plasma FXI of Maine Coon cats homozygous for wild-type FXI (natural protein)

- stoichiometry N [5]: 2
Substance: recombinant wild-type feline factor XI (fFXI-V516) (natural protein)
